Results: patent US20240366775A1, “HUMAN TRANSFERRIN RECEPTOR BINDING ANTIBODY-PEPTIDE CONJUGATE” (PEPTIDREAM INC., priority 2021, published 2024)

Target: human transferrin receptor (hTfR) (human), P02786
Test: SPR of naked peptide on hTfR; B = KD between 1 nM and 100 nM

Sequence of human transferrin receptor (hTfR) (human), P02786 (P02786 89-760 limits assumed): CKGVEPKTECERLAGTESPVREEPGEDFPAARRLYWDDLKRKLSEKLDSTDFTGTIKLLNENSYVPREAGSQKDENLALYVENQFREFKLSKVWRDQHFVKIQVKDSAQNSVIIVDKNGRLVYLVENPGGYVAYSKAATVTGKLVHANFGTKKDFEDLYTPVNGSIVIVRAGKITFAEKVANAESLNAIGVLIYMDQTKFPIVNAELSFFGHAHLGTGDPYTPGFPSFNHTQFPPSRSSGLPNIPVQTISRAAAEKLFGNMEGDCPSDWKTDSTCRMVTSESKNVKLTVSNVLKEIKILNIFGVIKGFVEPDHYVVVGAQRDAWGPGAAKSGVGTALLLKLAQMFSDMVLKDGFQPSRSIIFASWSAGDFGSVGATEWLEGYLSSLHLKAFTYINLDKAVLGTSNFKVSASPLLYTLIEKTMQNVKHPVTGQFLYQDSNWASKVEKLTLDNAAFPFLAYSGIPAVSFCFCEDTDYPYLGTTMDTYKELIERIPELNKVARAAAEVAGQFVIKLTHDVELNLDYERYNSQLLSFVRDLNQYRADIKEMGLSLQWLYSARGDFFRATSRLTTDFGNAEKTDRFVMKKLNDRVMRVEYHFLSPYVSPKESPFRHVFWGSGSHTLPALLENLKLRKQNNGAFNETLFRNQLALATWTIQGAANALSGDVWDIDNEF

For AVFVWNYYIISC (modifications not checked) [naked peptide (1st to 12th amino acids) of SEQ ID NO: 14, peptide 36], which KD is on record?
Its KD is 1 to 100 nM.
